For this assay, the target named is endogenous calcineurin A (CaNA) in mouse primary cortical neurons (mouse (endogenous in primary cortical neurons)) (UniProt P63328). Kind of assay: FRET or BRET. (Bioluminescence resonance energy transfer reports proximity on the nanometre scale.)

For “endogenous calcineurin B subunit (CaNB) in mouse primary cortical neurons (from UniProt Q63810 1-170) (natural protein)”, the 565/522 ratio, spine, AD brain SEC fraction 60 min came to 0.451; the FRET Ratio increase, cytoplasm, 6 hours of TgCM is 0.51; the FRET Ratio increase, nucleus, 6 hours of TgCM was 0.49; the peak of the FRET distribution in spines, 15 min of TgCM was 0.45. Also, the peak of the FRET distribution in spines, 30 min of TgCM amounted to 0.48 and the peak of the FRET distribution in spines, 60 min of TgCM was determined as 0.48.

“endogenous calmodulin (CaM) in mouse primary cortical neurons (from UniProt P0DP26 1-149) (natural protein)”: the peak of the FRET distribution in spines, 15 min of TgCM came to 0.38; the peak of the FRET distribution in spines, 30 min of TgCM came to 0.39; the peak of the FRET distribution in spines, 60 min of TgCM turned out to be 0.4.

(Values after paper PMC3354533.)
